# B1: Complement factor H (Homo sapiens), P08603 (parent)
# chain: MRLLAKIICLMLWAICVAEDCNELPPRRNTEILTGSWSDQTYPEGTQAIYKCRPGYRSLGNVIMVCRKGEWVALNPLRKCQKRPCGHPGDTPFGTFTLTGGNVFEYGVKAVYTCNEGYQLLGEINYRECDTDGWTNDIPICEVVKCLPVTAPENGKIVSSAMEPDREYHFGQAVRFVCNSGYKIEGDEEMHCSDDGFWSKEKPKCVEISCKSPDVINGSPISQKIIYKENERFQYKCNMGYEYSERGDAVCTESGWRPLPSCEEKSCDNPYIPNGDYSPLRIKHRTGDEITYQCRNGFYPATRGNTAKCTSTGWIPAPRCTLKPCDYPDIKHGGLYHENMRRPYFPVAVGKYYSYYCDEHFETPSGSYWDHIHCTQDGWSPAVPCLRKCYFPYLENGYNQNYGRKFVQGKSIDVACHPGYALPKAQTTVTCMENGWSPTPRCIRVKTCSKSSIDIENGFISESQYTYALKEKAKYQCKLGYVTADGETSGSITCGKDGWSAQPTCIKSCDIPVFMNARTKNDFTWFKLNDTLDYECHDGYESNTGSTTGSIVCGYNGWSDLPICYERECELPKIDVHLVPDRKKDQYKVGEVLKFSCKPGFTIVGPNSVQCYHFGLSPDLPICKEQVQSCGPPPELLNGNVKEKTKEEYGHSEVVEYYCNPRFLMKGPNKIQCVDGEWTTLPVCIVEESTCGDIPELEHGWAQLSSPPYYYGDSVEFNCSESFTMIGHRSITCIHGVWTQLPQCVAIDKLKKCKSSNLIILEEHLKNKKEFDHNSNIRYRCRGKEGWIHTVCINGRWDPEVNCSMAQIQLCPPPPQIPNSHNMTTTLNYRDGEKVSVLCQENYLIQEGEEITCKDGRWQSIPLCVEKIPCSQPPQIEHGTINSSRSSQESYAHGTKLSYTCEGGFRISEENETTCYMGKWSSPPQCEGLPCKSPPEISHGVVAHMSDSYQYGEEVTYKCFEGFGIDGPAIAKCLGEKWSHPPSCIKTDCLSLPSFENAIPMGEKKDVYKAGEQVTYTCATYYKMDGASNVTCINSRWTGRPTCRDTSCVNPPTVQNAYIVSRQMSKYPSGERVRYQCRSPYEMFGDEEVMCLNGNWTEPPQCKDSTGKCGPPPPIDNGDITSFPLSVYAPASSVEYQCQNLYQLEGNKRITCRNGQWSEPPKCLHPCVISREIMENYNIALRWTAKQKLYSRTGESVEFVCKRGYRLSSRSHTLRTTCWDGKLEYPTCAKR
# partner: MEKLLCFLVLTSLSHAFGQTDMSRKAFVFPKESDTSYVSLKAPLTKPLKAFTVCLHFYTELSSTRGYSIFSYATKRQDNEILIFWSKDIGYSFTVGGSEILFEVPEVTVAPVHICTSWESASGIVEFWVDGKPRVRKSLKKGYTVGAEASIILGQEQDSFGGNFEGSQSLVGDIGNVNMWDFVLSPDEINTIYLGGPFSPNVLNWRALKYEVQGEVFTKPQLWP
# B2: Complement factor H-related protein 4 (Homo sapiens), Q92496-1 (parent)
# chain: MLLLINVILTLWVSCANGQEVKPCDFPEIQHGGLYYKSLRRLYFPAAAGQSYSYYCDQNFVTPSGSYWDYIHCTQDGWSPTVPCLRTCSKSDVEIENGFISESSSIYILNEETQYNCKPGYATAEGNSSGSITCLQNGWSTQPICIKFCDMPVFENSRAKSNGMWFKLHDTLDYECYDGYESSYGNTTDSIVCGEDGWSHLPTCYNSSENCGPPPPISNGDTTSFPQKVYLPWSRVEYQCQSYYELQGSKYVTCSNGDWSEPPRCISMKPCEFPEIQHGHLYYENTRRPYFPVATGQSYSYYCDQNFVTPSGSYWDYIHCTQDGWLPTVPCLRTCSKSDIEIENGFISESSSIYILNKEIQYKCKPGYATADGNSSGSITCLQNGWSAQPICIKFCDMPVFENSRAKSNGMRFKLHDTLDYECYDGYEISYGNTTGSIVCGEDGWSHFPTCYNSSEKCGPPPPISNGDTTSFLLKVYVPQSRVEYQCQSYYELQGSNYVTCSNGEWSEPPRCIHPCIITEENMNKNNIQLKGKSDIKYYAKTGDTIEFMCKLGYNANTSVLSFQAVCREGIVEYPRCE
# partner: B1 partner
# Variants of: B1
# Conditions: with crp_human CRP
row,Variant,effect of a mutation on the interaction
1,E338K,disrupting interaction strength

# Variants of: B2
# Conditions: with crp_human CRP
row,Variant,effect of a mutation on the interaction
1,S38A,with no effect
2,K37A;S38A;L39A,disrupting interaction strength
3,K37A;S38A,disrupting interaction strength
4,Y35A;Y36A,decreasing interaction strength
5,S38A;L39A,disrupting interaction strength
6,L39A,decreasing interaction strength
7,R40A;R41A,decreasing interaction strength
8,K37A,decreasing interaction strength
9,K37A;R40A;R41A,disrupting interaction strength

# Variants of: B2
# Conditions: with crp_human CRP
# Remark: another data set of the same source
row,Variant,effect of a mutation on the interaction
1,S38A,decreasing interaction strength
2,Y35A;Y36A,disrupting interaction strength
3,S38A;L39A,decreasing interaction strength
4,L39A,with no effect
5,R40A;R41A,disrupting interaction strength
6,K37A,disrupting interaction strength

# Variants of: B2
# Conditions: with crp_human CRP
# Remark: another data set of the same source
row,Variant,effect of a mutation on the interaction
1,E284K,increasing interaction strength

# Variants of: B2
# Conditions: with crp_human CRP
# Remark: another data set of the same source
row,Variant,effect of a mutation on the interaction
1,K37E,decreasing interaction strength

# Variants of: B2
# Conditions: with crp_human CRP
# Remark: another data set of the same source
row,Variant,effect of a mutation on the interaction
1,K37A;R40A;R41A,decreasing interaction strength

# Source: IntAct's records for PubMed 20042240
